Substitutions are numbered along the chain they refer to. Numbers in names are those of the source. Entries after “also recorded” stand apart in the source; their conditions may differ.
B1: CVN: lectin cyanovirin-N, SEQ ID NO:1 (protein)
chain: LGKFSQTCYNSAIQGSVLTSTCERTNGGYNTSSIDLNSVIENVDGSLKWQPSNFIETCRNTQLAGSSELAAECKTRAQQFVSTKINLDDHIANIDGTLKYE
B2: P51G-CVN: mutant CVN wherein Pro 51 is mutated to Gly, SEQ ID NO:3 (protein)
chain: B1 chain with P51G

Tests used:
SARS-CoV-2 pseudoviruses [1] = format: cell-based
SARS-CoV-1 pseudoviruses [2] = system: SARS-CoV-1 pseudoviruses
SARS-CoV-1 pseudoviruses [3] = format: cell-based
SARS-CoV-2 pseudoviruses [4] = system: SARS-CoV-2 pseudoviruses
[5] = molecular target: receptor binding domain (RBD) (Severe acute respiratory syndrome coronavirus 2, UniProt P0DTC2)
SARS-CoV-1 pseudoviruses [6] = format: cell-based; remark: listed apart in the source
[7] = molecular target: SARS-CoV-2 spike S1 subunit (Severe acute respiratory syndrome coronavirus 2, UniProt P0DTC2)
SARS-CoV-2 pseudoviruses [8] = format: cell-based; remark: listed apart in the source
HIV-1 pseudovirus [9] = format: cell-based
HIV-1 pseudovirus [10] = system: HIV-1 pseudovirus
[11] = molecular target: SARS-CoV-2 spike S2 subunit (Severe acute respiratory syndrome coronavirus 2, UniProt P0DTC2)
gp120 = gp120 (Human immunodeficiency virus type 1 group M subtype B, UniProt P35961); settings: SPR

Molecule	irreversible inactivation of SARS-CoV-2 (SARS-CoV-2 pseudoviruses [1])	virolysis of Env Neg pseudovirus (Env Neg pseudovirus)	virolysis of SARS-CoV-1 pseudoviruses (SARS-CoV-1 pseudoviruses [2])	irreversible inactivation of SARS-CoV-1 (SARS-CoV-1 pseudoviruses [3])	virolysis of SARS-CoV-2 pseudoviruses (SARS-CoV-2 pseudoviruses [4])	binding to receptor binding domain (RBD) [5]	inhibition of SARS-CoV-1 pseudovirus infection (SARS-CoV-1 pseudoviruses [6])	binding of S1 to lectin [7]	inhibition of SARS-CoV-2 pseudovirus infection (SARS-CoV-2 pseudoviruses [8])	inhibition of HIV-1 infection (HIV-1 pseudovirus [9])	virolysis of HIV-1 (HIV-1 pseudovirus [10])	stability of lectin-S2 complexes [11]	stoichiometry of binding, S2 versus S1 [11]	binding to gp120 (gp120)	binding to S1 subunit [7]	binding to S2 subunit [11]
B1	irreversible inactivation	no virolytic effect	no virolytic effect	irreversible inactivation	more potent than CVN-DLI; also recorded: capable of causing cell-free virolysis	no binding	inhibition	Relatively lower binding	inhibited infection at nanomolar potencies	inhibition	no virolytic effect	very stable	higher to the S2 subunit	occurred		
B2					reduced virolysis				decreased inhibition of infection						reduced affinity as compared to CVN	reduced affinity as compared to CVN

Source: patent US20230355708A1 (priority 2020, published 2023)
